The record followed here is article PMC10614411, “Endometrial cancer (EC) derived G3BP1 overexpression and mutant promote EC tumorigenesis and metastasis via SPOP/ERα axis” (Cell Communication and Signaling : CCS, 2023).

The target in the assay is T1, FLAG-G3BP1 Q392*, bacterially expressed (UniProt Q13283 1-391, Q392*).
T1 construct: The bacterial expression construct is not described in the methods; source: bacterially expressed
Nature of the assay: pull-down; GST fusion protein fixed on glutathione-Sepharose beads, incubated with recombinant FLAG-labeled proteins for 2 h, washed 5 times, Western blot with anti-FLAG. Conditions: both partners purified.

T1 sequence (Q13283 1-391, stated change not applied): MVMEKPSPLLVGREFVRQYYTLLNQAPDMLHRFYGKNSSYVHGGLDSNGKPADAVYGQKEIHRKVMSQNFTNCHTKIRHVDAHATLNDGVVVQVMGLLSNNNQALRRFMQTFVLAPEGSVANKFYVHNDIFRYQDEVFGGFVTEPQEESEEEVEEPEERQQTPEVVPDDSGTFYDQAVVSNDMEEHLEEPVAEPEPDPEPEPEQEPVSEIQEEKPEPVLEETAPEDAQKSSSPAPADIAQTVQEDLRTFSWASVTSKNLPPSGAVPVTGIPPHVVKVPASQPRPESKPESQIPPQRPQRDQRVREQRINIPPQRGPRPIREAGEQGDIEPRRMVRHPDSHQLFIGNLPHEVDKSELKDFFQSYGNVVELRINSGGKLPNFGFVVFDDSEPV

B1: GST-SPOP, bacterially expressed (natural protein, UniProt O43791 1-374, looked up)
chain: MSRVPSPPPPAEMSSGPVAESWCYTQIKVVKFSYMWTINNFSFCREEMGEVIKSSTFSSGANDKLKWCLRVNPKGLDEESKDYLSLYLLLVSCPKSEVRAKFKFSILNAKGEETKAMESQRAYRFVQGKDWGFKKFIRRDFLLDEANGLLPDDKLTLFCEVSVVQDSVNISGQNTMNMVKVPECRLADELGGLWENSRFTDCCLCVAGQEFQAHKAILAARSPVFSAMFEHEMEESKKNRVEINDVEPEVFKEMMCFIYTGKAPNLDKMADDLLAAADKYALERLKVMCEDALCSNLSVENAAEILILADLHSADQLKTQAVDFINYHASDVLETSGWKSMVVSHPHLVAEAYRSLASAQCPFLGPPRKRLKQS
notes: SPOP as a GST fusion protein; The bacterial expression construct is not described in the methods
With B1, the binding result is “binds”.
